# Measured values: the Immune Epitope Database (IEDB)
# What was measured:
# Assay in all cases: IEDB peptide-MHC binding, purified MHC/competitive/radioactivity; ≥ and ≤ were set here for values at or beyond the usual limits of such assays
# HLA-A*02:01 = biological target: HLA-A*02:01
# HLA-A*02:03 = biological target: HLA-A*02:03
# HLA-A*02:02 = biological target: HLA-A*02:02
# HLA-A*68:02 = biological target: HLA-A*68:02
# HLA-A*02:06 = biological target: HLA-A*02:06
# [1] = source organism: Vaccinia virus WR
# [2] = source organism: Hepacivirus hominis
# [3] = source organism: Mammarenavirus whitewaterense
# [4] = source organism: Influenza A virus
# [5] = source organism: Mammarenavirus guanaritoense
Sequence,IC50 (HLA-A*02:01; [1]),IC50 (HLA-A*02:03; [1]),IC50 (HLA-A*02:02; [1]),IC50 (HLA-A*68:02; [1]),IC50 (HLA-A*02:06; [1]),other results
TLLIKTLSPA,0.49 nM,1.2 nM,1 nM,1210 nM,0.73 nM,
FLCLFLLPSL,,,,,,IC50 (HLA-A*02:01; source organism: SARS-CoV1): 0.33 nM; IC50 (HLA-A*02:03; source organism: SARS-CoV1): 2.9 nM; IC50 (HLA-A*02:02; source organism: SARS-CoV1): 0.53 nM; IC50 (HLA-A*68:02; source organism: SARS-CoV1): 729 nM; IC50 (HLA-A*02:06; source organism: SARS-CoV1): 0.37 nM
IAGGVCYYL,1930 nM,1680 nM,53 nM,394 nM,1410 nM,
NTISGNIYSA,640 nM,314 nM,269 nM,0.19 nM,393 nM,
WISDNTHIYL,12 nM,1.2 nM,0.14 nM,4.8 nM,1.8 nM,
TLVKSGLTEV,9.2 nM,2.9 nM,64 nM,2320 nM,45 nM,
IVNTTYDFL,1050 nM,4680 nM,1880 nM,750 nM,2990 nM,
IICEDAMYYA,23 nM,108 nM,24 nM,746 nM,8.8 nM,
ALINLVQYRI,30 nM,82 nM,8.3 nM,1770 nM,417 nM,
YIPPCQCTV,107 nM,445 nM,196 nM,228 nM,92 nM,
NMLRIMASL,,,,,,IC50 (HLA-A*02:01; source organism: SARS-CoV1): 68 nM; IC50 (HLA-A*02:03; source organism: SARS-CoV1): 38 nM; IC50 (HLA-A*02:02; source organism: SARS-CoV1): 3.4 nM; IC50 (HLA-A*68:02; source organism: SARS-CoV1): 1310 nM; IC50 (HLA-A*02:06; source organism: SARS-CoV1): 50 nM
LLIAITAFT,,,,,,IC50 (HLA-A*02:01; [2]): 174 nM; IC50 (HLA-A*02:03; [2]): 12 nM; IC50 (HLA-A*02:02; [2]): 37 nM; IC50 (HLA-A*68:02; [2]): 1050 nM; IC50 (HLA-A*02:06; [2]): 461 nM
ALVSDCAST,115 nM,31 nM,701 nM,771 nM,311 nM,
NLYKVYNGI,451 nM,62 nM,408 nM,1610 nM,817 nM,
TVIKTLLEV,,,,,,IC50 (HLA-A*02:01; [3]): 276 nM; IC50 (HLA-A*02:03; [3]): 53 nM; IC50 (HLA-A*02:02; [3]): 2020 nM; IC50 (HLA-A*68:02; [3]): 2.8 nM; IC50 (HLA-A*02:06; [3]): 17 nM
IMFMLIFNV,12 nM,10 nM,0.15 nM,13 nM,13 nM,
TLLNETAKV,28 nM,83 nM,246 nM,1670 nM,11 nM,
TSISGVLWTV,,,,,,IC50 (HLA-A*02:01; [2]): 26 nM; IC50 (HLA-A*02:03; [2]): 27 nM; IC50 (HLA-A*02:02; [2]): 8.1 nM; IC50 (HLA-A*68:02; [2]): 2.2 nM; IC50 (HLA-A*02:06; [2]): 82 nM

Sequence,IC50 (HLA-A*02:01; [1]),IC50 (HLA-A*02:03; [1]),IC50 (HLA-A*02:02; [1]),IC50 (HLA-A*68:02; [1]),IC50 (HLA-A*02:06; [1]),other results
TSFFYRYGFV,,,,,,IC50 (HLA-A*02:01; [4]): 1100 nM; IC50 (HLA-A*02:03; [4]): 451 nM; IC50 (HLA-A*02:02; [4]): 1100 nM; IC50 (HLA-A*68:02; [4]): 0.0096 nM; IC50 (HLA-A*02:06; [4]): 851 nM
GVCYYLLMHL,124 nM,64 nM,96 nM,80 nM,128 nM,
IISYIILFI,12 nM,59 nM,2.8 nM,5.7 nM,27 nM,
LTNAISSRV,916 nM,19 nM,146 nM,16 nM,145 nM,
KLFTHDIML,1.4 nM,3 nM,1 nM,769 nM,4.7 nM,
FVKENERVNV,270 nM,12 nM,186 nM,1290 nM,683 nM,
YVSPTEMVDV,21 nM,50 nM,63 nM,235 nM,5.2 nM,
FQESFYEDIA,4840 nM,555 nM,2560 nM,2910 nM,303 nM,
YIAGLKIEEI,9.5 nM,5.3 nM,8.9 nM,669 nM,134 nM,
IVILFIMFM,576 nM,1680 nM,1860 nM,667 nM,741 nM,
CIVAAVIIMA,1900 nM,619 nM,1130 nM,1.3 nM,733 nM,
TLVDLCFWS,,,,,,IC50 (HLA-A*02:01; [5]): 61 nM; IC50 (HLA-A*02:03; [5]): 524 nM; IC50 (HLA-A*02:02; [5]): 58 nM; IC50 (HLA-A*68:02; [5]): 4880 nM; IC50 (HLA-A*02:06; [5]): 134 nM
TIGTIAGGV,772 nM,17 nM,298 nM,70 nM,1140 nM,
MVLMTHFFSV,,,,,,IC50 (HLA-A*02:01; [2]): 146 nM; IC50 (HLA-A*02:03; [2]): 174 nM; IC50 (HLA-A*02:02; [2]): 808 nM; IC50 (HLA-A*68:02; [2]): 13 nM; IC50 (HLA-A*02:06; [2]): 15 nM
MLLNVQTLI,2.9 nM,0.25 nM,0.17 nM,216 nM,0.22 nM,
FVNFVKDMI,1790 nM,124 nM,55 nM,0.62 nM,229 nM,
FISSFLLPLT,62 nM,44 nM,39 nM,982 nM,51 nM,
